These results are taken from US20250186620A1 (DUKE UNIVERSITY, published 2025).

In data set [1] the target is T1, human connexin36 (Cx36) (human, UniProt Q9UKL4 1-321).
T1 construct: whole, on cells; Hemichannel expressed in HEK 293FT cells for FETCH; also called GJD2; not shown: C-terminal fluorescent protein fusion (mEmerald or RFP670 in FETCH)
T1 sequence (looked up): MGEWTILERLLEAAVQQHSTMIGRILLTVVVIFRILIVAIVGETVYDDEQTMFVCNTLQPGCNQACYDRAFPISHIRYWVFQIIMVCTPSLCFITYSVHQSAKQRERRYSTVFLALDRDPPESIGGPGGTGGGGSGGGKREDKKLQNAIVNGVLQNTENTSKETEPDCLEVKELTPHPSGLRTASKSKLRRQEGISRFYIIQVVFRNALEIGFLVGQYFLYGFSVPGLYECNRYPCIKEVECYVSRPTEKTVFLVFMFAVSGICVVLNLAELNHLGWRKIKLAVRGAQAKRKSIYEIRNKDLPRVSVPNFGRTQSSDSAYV
Kind of data set: FETCH (flow cytometry, % dual-labelled HEK 293FT cells), heterotypic. The method, then: (§1) Complete FETCH methodology is outlined in Ransey et. al. 2021 (Ransey E, et al. (2021) BioRxiv). Briefly, replica multi-well plates with HEK 293FT cells were transfected with either of the two connexin proteins being evaluated for docking. Following a transfection incubation period, experimental counterparts were combined, replated, and further incubated for about 20 hr to about 24 hrs, allowing cells to make contacts and potentially generate connexosomes. Co-plated samples were trypsinized, fixed in suspension and analyzed via flow cytometry. Flow cytometry data was processed with two selection gates prior to their fluorescence evaluation. First, putative HEK cells were identified by evaluating sample forward vs. side scatter area. Next, single cells were identified as the putative cells that maintained a linear correlation of forward scatter height to forward scatter area. Finally, the dual fluorescence (mEmerald vs. RFP670) profiles of each sample was generated, and the FETCH score was defined as the proportion of dual-labeled fluorescent cells that develop in a co-plated sample.

Data set [2] concerns the target T2, Wild-type Connexin35 (Cx35) of Morone americana (Morone americana).
T2 construct: Connexin hemichannel (hexamer) expressed in HEK 293FT cells; In C. elegans it was expressed as GFP or mCherry fusion; also called Cx35WT; not shown: C-terminal fluorescent protein fusion (mEmerald or RFP670 in FETCH)
T2 chain: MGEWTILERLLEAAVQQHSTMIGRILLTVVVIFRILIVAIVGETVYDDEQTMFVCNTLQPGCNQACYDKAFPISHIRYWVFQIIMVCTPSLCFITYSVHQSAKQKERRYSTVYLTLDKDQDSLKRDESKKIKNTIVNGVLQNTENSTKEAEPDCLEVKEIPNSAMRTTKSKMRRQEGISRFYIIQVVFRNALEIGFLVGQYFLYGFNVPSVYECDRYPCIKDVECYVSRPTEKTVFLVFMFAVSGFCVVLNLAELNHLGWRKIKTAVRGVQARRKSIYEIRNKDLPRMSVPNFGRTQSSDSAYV
Kind of data set: heterotypic FETCH. How it is done:
as §1

The data set “homotypic FETCH” deals with the molecule itself. Nature of the data set: homotypic FETCH. How it is done:
as §1

Data set [3] concerns the molecule itself. Nature of the data set: FETCH (flow cytometry, % dual-labelled HEK 293FT cells), homotypic. The method, then: as §1
A general note: A flow cytometer gives signals particle by particle.

The target of data set [4] is T3, Cx35K221E (designer connexin Cx35M1, Morone americana Cx35 with K221E) (Morone americana).
T3 construct: Rationally designed hemichannel; In C. elegans expressed as GFP or mCherry fusion; in mice from AAV9 as mApple or mEmerald fusion; not shown: C-terminal fluorescent protein fusion (mEmerald or RFP670 in FETCH)
T3 chain: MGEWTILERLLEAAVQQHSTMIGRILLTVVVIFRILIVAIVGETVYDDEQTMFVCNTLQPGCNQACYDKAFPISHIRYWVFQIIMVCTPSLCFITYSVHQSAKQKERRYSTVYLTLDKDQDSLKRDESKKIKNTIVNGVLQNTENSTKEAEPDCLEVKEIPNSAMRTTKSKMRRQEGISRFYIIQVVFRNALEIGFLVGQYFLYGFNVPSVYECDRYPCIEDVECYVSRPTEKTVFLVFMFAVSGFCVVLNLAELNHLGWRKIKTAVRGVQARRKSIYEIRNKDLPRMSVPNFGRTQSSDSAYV
Kind of data set: FETCH (flow cytometry, % dual-labelled HEK 293FT cells), heterotypic. How it is done:
as §1

The target of data set [5] is T4, human connexin43 (Cx43) (human, UniProt P17302 2-382).
T4 construct: whole, on cells; Hemichannel expressed in HEK 293FT cells for FETCH; also called GJA1; not shown: C-terminal fluorescent protein fusion (mEmerald or RFP670 in FETCH)
Described as above. How it is done: as §1

Data set [6] addresses T1, human connexin36 (Cx36). Kind of data set: heterotypic FETCH. The method, then:
as §1

The target in data set [7] is T4, human connexin43 (Cx43). Kind of data set: heterotypic FETCH. How it is done: as §1

T4 sequence (P17302 2-382): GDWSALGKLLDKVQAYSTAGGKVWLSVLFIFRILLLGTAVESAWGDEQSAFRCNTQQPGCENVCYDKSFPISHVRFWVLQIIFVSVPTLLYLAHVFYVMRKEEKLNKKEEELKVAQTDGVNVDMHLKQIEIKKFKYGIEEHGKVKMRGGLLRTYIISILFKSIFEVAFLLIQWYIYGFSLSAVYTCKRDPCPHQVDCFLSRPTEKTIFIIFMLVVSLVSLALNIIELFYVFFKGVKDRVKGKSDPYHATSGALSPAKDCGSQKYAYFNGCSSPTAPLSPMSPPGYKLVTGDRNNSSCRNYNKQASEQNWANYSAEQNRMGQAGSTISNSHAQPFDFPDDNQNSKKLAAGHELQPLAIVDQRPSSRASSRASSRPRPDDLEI

B1: Wild-type Connexin34.7 (Cx34.7) of Morone americana (other)
chain: MGEWTILERLLEAAVQQHSTMIGRILLTVVVIFRILIVAIVGETVYEDEQAMFICNTLQPGCNQACYDKAFPISHIRYWVFQIILVCTPSLCFITYSVHQSAKQKDRRYSFLYPIMERDYGGRDGARKLRNINGILVQHGGDGGGGKEEPDCLEVKEIPNAPRGLTHGKSSKVRRQEGISRFYIIQVVFRNALEIGFLAGQYFLYGFSVPGIFECDRYPCLKEVECYVSRPTEKTVFLVFMFAVSGICVVLNLAELNHLGWRKIKAAIRGVQARRKSICEIRKKDMAHLSQPPNLGRTQSSESAYV
notes: In C. elegans it was expressed as GFP or mCherry fusion; also called Cx34.7WT; not shown: C-terminal fluorescent protein fusion (mEmerald or RFP670 in FETCH)
B1 returned an FETCH score in the data set with human connexin36 (Cx36) [1] of 11.9%. Moreover, the binding result in data set [2] was “binds”.

B2: Cx34.7E214K/E223K (designer connexin Cx34.7M1, Morone americana Cx34.7 with E214K and E223K) (other)
chain: MGEWTILERLLEAAVQQHSTMIGRILLTVVVIFRILIVAIVGETVYEDEQAMFICNTLQPGCNQACYDKAFPISHIRYWVFQIILVCTPSLCFITYSVHQSAKQKDRRYSFLYPIMERDYGGRDGARKLRNINGILVQHGGDGGGGKEEPDCLEVKEIPNAPRGLTHGKSSKVRRQEGISRFYIIQVVFRNALEIGFLAGQYFLYGFSVPGIFKCDRYPCLKKVECYVSRPTEKTVFLVFMFAVSGICVVLNLAELNHLGWRKIKAAIRGVQARRKSICEIRKKDMAHLSQPPNLGRTQSSESAYV
notes: Rationally designed hemichannel; In C. elegans expressed as GFP or mCherry fusion; in mice from AAV9 as mEmerald or mApple fusion; not shown: C-terminal fluorescent protein fusion (mEmerald or RFP670 in FETCH)
As to B2, the binding result in the data set “homotypic FETCH”, with human connexin36 (Cx36) [6] and with human connexin43 (Cx43) [7] was “no binding” each time. For the same molecule, the FETCH score came out at 1.1% in data set [3], 35.7% in data set [4], 1% in the data set with human connexin36 (Cx36) [1] and 0.9% with human connexin43 (Cx43) [5].
